Results published in US20230071765A1, “COMPOSITIONS HAVING THIOREDOXIN ACTIVITY AND RELATED METHODS” (ORPRO THERAPEUTICS, INC., priority 2020, published 2023).

Key:
[1] = system: CF patient sputum on wild type rat trachea; assay: CF sputum transport ex vivo on excised rat trachea (μOCT); design: species or system human sputum
Description: To determine the effect of ORP100S on CF sputum transportability, sputum specimens spontaneously expectorated from 4 CF patients hospitalized for pulmonary exacerbation were collected and stored at 4° C. before being divided into 200 μL aliquots and treated with ORP100S (3 mM), PBS, DTT (1.6 mM), or DNase (10 or 25 μg/ml) on the day of or day following collection. Upon treatment, sputum aliquots were placed in a 37° C. water bath for 2 hrs and then applied (3 μl per sample) for μOCT imaging to the distal end of trachea excised from adult non-CF rats. Trachea were washed 2× with 500 μl of PBS before sputum addition. Sample conditions were applied in triplicate in random order at distinct anatomic locations—2 washes using 500 μl of PBS were performed between each sample addition—and at least 3 images were collected from each region of interest. Confirmation of trachea viability was obtained by imaging with PBS upon completion of the experiment.
(§1) One-micron resolution spectral domain μOCT was used to obtain measurements of mucociliary transport (MCT) rate and ciliary beat frequency (CBF) in HBE monolayers and of MCT rate of sputum ex vivo. This first-in-kind, high-speed (40 frames per second, 512 lines per frame) microscopic reflectance imaging modality enables simultaneous anatomic imaging in cell cultures and intact tissues that readily distinguishes the properties of CF compared to normal epithelia (Liu L, Chu K K, Houser G H, Diephuis B J, Li Y, Wilsterman E J, Shastry S, Dierksen G, Birket S E, Mazur M, et al., 2013, Method for quantitative study of airway functional microanatomy using micro-optical coherence tomography, PLoS One 8(1):e54473; Tuggle K L, Birket S E, Cui X, Hong J, Warren J, Reid L, Chambers A, Ji D, Gamber K, Chu K K, et al., 2014, Characterization of defects in ion transport and tissue development in Cystic Fibrosis Transmembrane Conductance Regulator (CFTR)-knockout rats. PLoS One 9(3):e91253). In addition to MCT rate and CBF, μOCT also has the capability to assess physical characteristics of the airway surface liquid. Images were captured, and MCT rate and CBF calculated, as described in the preceding references.
The effect of ORP100S on mucus clearance using intact rat trachea, which include the complexities of the airway surface such as gland expression of a fully differentiated mucosal surface, was further evaluated. […] MCT was measured by projecting a cross-sectional line through the mucus through time, with the slope of the particle trajectories indicating velocity. […]

[2] = system: primary HBE cells from CF donors homozygous for F508del; assay: μOCT of MCT rate and CBF in CF primary HBE cells; type: cell-based, human
Source text: Primary human bronchial epithelial (HBE) cells were derived from lung explants from healthy failed donors and CF patients homozygous for F508del CFTR. […]
as §1, with “PLoS One 9(3):e91253). In addition to MCT rate and CBF, μOCT also has the capability to assess physical characteristics of the airway surface liquid.” left out

B1: ORP100S: thioredoxin with monothiol active site, Cys35 and non-active Cys 62, 69 and 73 substituted with serine (SEQ ID NO:29) (protein)
chain: MVKQIESKTAFQEALDAAGDKLVVVDFSATWCGPSKMIKPFFHSLSEKYSNVIFLEVDVDDSQDVASESEVKSMPTFQFFKKGQKVGEFSGANKEKLEATINELV
modifications: synthetic peptide motif
[1]; 3 mM, μOCT images
  sputum density vs. PBS-treated sputum: effective in decreasing sputum density
[1]; sputum treated 2 hrs, ORP100S 3 mM, DTT 1.6 mM, DNase 10 or 25 μg/ml
  change in MCT rate normalized to the effect of PBS: 3.80±0.35 fold vs. PBS
[1]; sputum treated 2 hrs, ORP100S 3 mM, DTT 1.6 mM, DNase 10 or 25 μg/ml, PBS 0.97±0.17
  MCT rate of treated sputum: 4.68±0.9 mm/min
[2]; 3 hrs post treatment
  CBF: no meaningful differences
[2]; 3 hrs post-treatment, ORP100S 1-3 mM, DTT 1.6 mM, PBS 7.30±2.9, mean±SE
  MCT rate: 54.73±15.3 mm/min
